Test results taken from patent publication US20200289663A1.

Assays:
[1] = biological target: human recombinant protein HER2-ECD with his-tag (human) (UniProt P04626); assay: ELISA on coated HER2-ECD, average of three independent assays
[2] = biological target: human recombinant protein HER2-ECD with his-tag (human) (UniProt P04626); assay: ELISA on coated HER2-ECD

RC48-VC-MMAF, sequence (VH): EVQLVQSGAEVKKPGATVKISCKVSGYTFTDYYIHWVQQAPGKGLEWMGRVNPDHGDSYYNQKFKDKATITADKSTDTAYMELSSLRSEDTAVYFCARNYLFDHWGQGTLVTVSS
RC48-VC-MMAF, sequence (VL): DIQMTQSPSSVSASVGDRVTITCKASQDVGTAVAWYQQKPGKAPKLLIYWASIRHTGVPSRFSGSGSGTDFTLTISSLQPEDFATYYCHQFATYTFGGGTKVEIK
RC48-mc-vc-pAB-MMAE, sequence (VH): as the sequence (VH) above
RC48-mc-vc-pAB-MMAE, sequence (VL): as the sequence (VL) above
humanized anti-HER2 monoclonal antibody RC48, sequence (VH): as the sequence (VH) above
humanized anti-HER2 monoclonal antibody RC48, sequence (VL): as the sequence (VL) above

Kd [1] [pM] | Binding affinity [2] [ng/mL] | Mole equivalent [2] | Substance
77 | – | – | human-mouse chimeric anti-HER2 antibody cRC48
44 | – | – | humanized anti-HER2 monoclonal antibody RC48
– | 3.35 | 13.5 | RC48-VC-MMAF
– | 2.24 | 15.2 | RC48-mc-vc-pAB-MMAE
